# Reference: US9290794B2, “Mutant protease biosensors with enhanced detection characteristics” (PROMEGA CORPORATION, priority 2010, dated 2016)
# Legend:
# caspase-3 [1] = assay: CBS expressed in E. coli, HisLink purification fractions, caspase-3 cleavage reaction; assay type: biochemical
# Experimental: The CBS variant 1A5 was cloned into a bacterial expression vector (pFNA:HQ(5×):CBS:HT(7); SEQ ID NOs:73 and 74) containing HaloTag® (C-terminal to the CBS) and a 5×HQ tag (N-terminal to CBS). The fusion protein was expressed in E. coli as follows: E. coli (KRX) was transformed with the vector. A starter culture (50 mL, LB Broth) was inoculated from a single colony and grown for 17-22 hrs at 37° C. with shaking (275 rpm). The starter culture was diluted (1:50) into induction media (500 mL, LB Broth with 0.05% glucose and 0.02% rhamnose) and growth was continued for another 17-22 hrs at 25° C. with shaking (275 rpm). The culture was divided into two 250 mL aliquots, and cells were collected by centrifugation (5,000×g for 20 min at 4° C.). One cell pellet was re-suspended in Lysis Buffer (25 mL, 50 mM HEPES (pH 7.5), 0.2× FastBreak, 2 mM DTT, 0.05% CHAPS, 50 mM Arginine, 50 mM Glutamic acid, 0.2 mg/mL Lysozyme, 10 U/mL RQ1 DNase, and Protease Inhibitors (Beckton/Dickenson Cat. No. 544779)) and incubated on ice for 30 min. After incubation, the sample was sonicated (Misonix Sonicator-3000, 4 mM total, 5 sec on, 5 sec rest, Power Setting 5). The crude lysate was clarified by centrifugation (20,000×g for 20 min at 4° C.), and the supernatant (cleared lysate) was used as the CBS source. For the caspase-3 cleavage reaction, 20 μl of the cleared lysate was mixed with 20 μL E. coli lysate expressing caspase-3 (Example XII) and incubated at room temperature for 30 min. 60 μL HEPES pH 7.5 was added, followed by the addition of 100 μL Bright-Glo Assay Reagent. Luminescence was detected as previously described above (FIG. 20).
# Briefly, 25 mL of cleared lysate was made 0.5 M in NaCl (final concentration) and applied to 2 mL of settled HisLink resin that had been equilibrated with Binding Buffer (100 mM HEPES (pH7.5), 10 mM Imidazole, 500 mM NaCl). The resin was washed with 12 mL of Binding Buffer followed by washing with Elution Buffer (100 mM HEPES (pH 7.5), 1000 mM Imidazole). 1.75 mL fractions were collected.
# For SDS-PAGE gel analysis, samples were labeled with CA-TAM and analyzed as described previously (FIG. 21A). For caspase-3 cleavage reaction, 20 μl of each sample was mixed with 20 μL E. coli lysate expressing Caspase-3 (Example XII) and incubated at room temperature for 30 min. 60 μL HEPES pH 7.5 was added, followed by the addition of 100 μL Bright-Glo Assay Reagent. Luminescence was detected as previously described above (Table 10 and FIG. 21B).
# caspase-3 [2] = assay: Purified HQ:CBS:HT from E. coli immobilized on solid support, activation by Caspase-3; assay type: biochemical
# [3] = HisLink purification sample HSS
# [4] = HisLink purification sample NSM
# [5] = HisLink purification sample WASH
molecule,measurement,setting,value
HQ:CBS:HT: 5×HQ tag:CBS (variant 1A5):HaloTag fusion protein expressed in E. coli (SEQ ID NOs:73 and 74) (protein) MKHQHQHQAIAMPGSTGKIVPLHAVKVVDPTTGKILGPNEPGELYFKGPMIMKGYYNNEEATKAIIDNDGWLRSGDIAYYDNDGHFYIVDRLKSLIKYKGYQVAPAEIEGILLQHPYIVDAGVTGIPDEAAGELPAAGVVVQTGKYLNEQIVQDYVASQVSIAKWLRGGVKFLDEIPKGSTGKIDRKVLRQMLEKHTNGSDEVDGSLKNILYGPEPFYPLEDGTAGEQMFDALSRYAAIPGCIALTNAHTKENVLYEEFLKLSCRLAESFKKYGLKQNDTIAVCSENSLQFFLPVIASLYLGIIVAPVNDKYIERELIHSLGIVKPRIVFCSKNTFQKVLNVKSKLKSIETIIILDLNEDLGGYQCLNNFISQNSDSNLDVKKFKPYSFNRDDQVASIMFSSGTTGLPKGVMLTHKNIVARFSIAKDPTFGNAINPTSAILTVIPFHHGFGMMTTLGYFTCGFRVVLMHTFEEKLFLQSLQDYKVESTLLVPTLMAFLAKSALVEKYDLSHLKEIASGGAPLSKEIGEMVKKRFKLNFVRQGYGLTETTSAVLITPKGVSLEPTTEDLYFQSDNDGSEIGTGFPFDPHYVEVLGERMHYVDVGPRDGTPVLFLHGNPTSSYVWRNIIPHVAPTHRCIAPDLIGMGKSDKPDLGYFFDDHVRFMDAFIEALGLEEVVLVIHDWGSALGFHWAKRNPERVKGIAFMEFIRPIPTWDEWPEFARETFQAFRTTDVGRKLIIDQNVFIEGTLPMGVVRPLTEVEMDHYREPFLNPVDREPLWRFPNELPIAGEPANIVALVEEYMDWLHQSPVPKLLFWGTPGVLIPPAEAARLAKSLPNCKAVDIGPGLNLLQEDNPDLIGSEIARWLSTLEISG,BASAL luminescence,caspase-3 [1]; HisLink elution fraction E1,"4,221"
same,INDUCED luminescence,caspase-3 [1]; HisLink elution fraction E1,"2,951,899"
same,RESPONSE,caspase-3 [1]; HisLink elution fraction E1,699
same,BASAL luminescence,caspase-3 [1]; HisLink elution fraction E2,"193,268"
same,INDUCED luminescence,caspase-3 [1]; HisLink elution fraction E2,"40,913,496"
same,RESPONSE,caspase-3 [1]; HisLink elution fraction E2,212
same,BASAL luminescence,caspase-3 [1]; HisLink elution fraction E3,"18,454"
same,INDUCED luminescence,caspase-3 [1]; HisLink elution fraction E3,"3,287,059"
same,RESPONSE,caspase-3 [1]; HisLink elution fraction E3,178
same,BASAL luminescence,caspase-3 [1]; HisLink elution fraction E4,"1,130"
same,INDUCED luminescence,caspase-3 [1]; HisLink elution fraction E4,"215,580"
same,RESPONSE,caspase-3 [1]; HisLink elution fraction E4,191
same,BASAL luminescence,caspase-3 [1]; HisLink elution fraction E5,270
same,INDUCED luminescence,caspase-3 [1]; HisLink elution fraction E5,"48,068"
same,RESPONSE,caspase-3 [1]; HisLink elution fraction E5,178
same,BASAL luminescence,caspase-3 [1]; [3],"301,304"
same,INDUCED luminescence,caspase-3 [1]; [3],"12,875,742"
same,RESPONSE,caspase-3 [1]; [3],43
same,BASAL luminescence,caspase-3 [1]; [4],"176,259"
same,INDUCED luminescence,caspase-3 [1]; [4],"5,822,003"
same,RESPONSE,caspase-3 [1]; [4],33
same,BASAL luminescence,caspase-3 [1]; [5],"7,734"
same,INDUCED luminescence,caspase-3 [1]; [5],"3,706,541"
same,RESPONSE,caspase-3 [1]; [5],479
same,BASAL luminescence,caspase-3 [2]; column HaloLink-Plate,"6,880"
same,INDUCED luminescence,caspase-3 [2]; column HaloLink-Plate,"661,597"
same,RESPONSE,caspase-3 [2]; column HaloLink-Plate,96
same,BASAL luminescence,caspase-3 [2]; column HisLink,"193,268"
same,INDUCED luminescence,caspase-3 [2]; column HisLink,"40,913,496"
same,RESPONSE,caspase-3 [2]; column HisLink,212
